This note sets out measurements from publication PMC3020594.

Substrate in series [1]: Nc1ncn([C@H]2C[C@H](O)[C@@H](CO)O2)c(=O)n1
Put plainly: purified protein. Type of series: biochemical, Homo sapiens. Conditions: zinc active site.

Substrate in series [2]: Nc1ccn([C@H]2C[C@H](O)[C@@H](CO)O2)c(=O)n1
Put plainly: purified protein. Conditions: zinc active site.

B1: human cytidine deaminase (CDA) (Homo sapiens; Y33G) (protein)
chain: MAQKRPACTLKPECVQQLLVCSQEAKKSAYCPGSHFPVGAALLTQEGRIFKGCNIENACYPLGICAERTAIQKAVSEGYKDFRAIAIASDMQDDFISPCGACRQVMREFGTNWPVYMTKPDGTYIVMTVQELLPSSFGPEDLQKTQ
As for B1, the Km in “purified protein [1]” was determined as 349.0 µM; in the series “purified protein [2]” it was 47.6 µM. The Vmax in “purified protein [1]” is 0.174 µmol/min/mg; in “purified protein [2]”, 0.127 µmol/min/mg.

Broadly, the Km is the substrate concentration at which the rate is half of its maximum. In general, Vmax refers to the top rate of the reaction or transport when substrate is in excess.
